B1: Azoarcus group I ribozyme (parent)
chain: GUGCCUUGCGCCGGGAAACCACGCAAGGGAUGGUGUCAAAUUCGGCGAAACCUAAGCGCCCGCCCGGGCGUAUGGCAACGCCGAGCCAAGCUUCGGCGCCUGCGCCGAUGAAGGUGUAGAGACUAGACGGCACCCACCUAAGGCAAACGCUAUGGUGAAGGCAUAGUCCAGGGAGUGGCGAAAGUCACACAAACCGG

Variants of: B1
Test: reverse-splicing fitness (ratio to wild type); higher = more active; in vitro selection; Mg2+ level not given
In short: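 An in vitro group I ribozyme library with randomized positions was T7-transcribed and gel-purified. In triplicate, 10 pmol RNA in EPPS pH 7.5 was reacted with 50 pmoles of a 30-nt RNA substrate for 1 h at 37 °C across several added MgCl2 levels (1–48 mM), then stopped with EDTA. Products were reverse transcribed from a substrate-complementary primer, PCR-amplified and sequenced (HiSeq 4000). Fitness is a variant's read proportion after selection over that before, normalised to wild type.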

| Variant | reverse-splicing fitness |
| --- | --- |
| C82A A111C A120U A145C C150G U176C | 0.00415 |
| C82A A111C A120G C150G C169A U176C | 0.00996 |
| C82A A111C A120G C150G C169A U176G | 0.00659 |
| C82A A111C A120G C150G C169A U176A | 0.0102 |
| C82A A111C A120U A145C C150U C169G U176C | 0.00264 |
| C82A A111C A120U A145C C150U C169G U176A | 0.00406 |
| C82A A111C A120U A145C C150U C169G U176G | 0.00286 |
| C82A A111C A120U A145C C150G C169U U176C | 0.00347 |
| C82A A111C A120U A145C C150G C169U U176A | 0.00398 |
| C82A A111C A120U A145C C150G C169U U176G | 0.00285 |
| C82A A111C A120U A145G C150G C169A | 0.00782 |
| C82A A111C A120U A145G C150G C169U | 0.00759 |
| C82A A111C A120U A145G C150G C169G | 0.00663 |
| C82A A111C A120G A145U U176A | 0.0134 |
| C82A A111C A120G A145U U176G | 0.00466 |
| C82A A111C A120G A145U U176C | 0.0197 |
| C82A A111C A120U A145G C150A C169G U176C | 0.00514 |
| C82A A111C A120U A145G C150A C169G U176A | 0.00687 |
| C82A A111C A120U A145G C150A C169G U176G | 0.00261 |
| C82A A111C A120G C150U C169A U176G | 0.00621 |
| C82A A111C A120G C150U C169A U176A | 0.013 |

| Variant | reverse-splicing fitness |
| --- | --- |
| C82A A111C A120G C150U C169A U176C | 0.0139 |
| C82A A111C A120U A145G C150G C169A U176A | 0.0122 |
| C82A A111C A120U A145G C150G C169A U176C | 0.0094 |
| C82A A111C A120U A145G C150G C169A U176G | 0.00541 |
| C82A A111C A120G A145U C150G C169U U176A | 0.00693 |
| C82A A111C A120G A145U C150G C169U U176G | 0.00542 |
| C82A A111C A120G A145U C150G C169U U176C | 0.0111 |
| C82A A111C A120U A145U C150A C169U U176C | 0.00301 |
| C82A A111C A120U A145U C150A C169U U176G | 0.00282 |
| C82A A111C A120U A145U C150A C169U U176A | 0.00378 |
| C82A A111C A120G C150A C169U U176C | 0.018 |
| C82A A111C A120G C150A C169U U176G | 0.00682 |
| C82A A111C A120G C150A C169U U176A | 0.018 |
| C82A A111C A120U C150A C169A U176G | 0.00277 |
| C82A A111C A120U C150A C169A U176C | 0.00418 |
| C82A A111C A120U C150A C169A U176A | 0.00546 |
| C82A A111C A120G C169U | 0.00841 |
| C82A A111C A120G C169A | 0.0095 |
| C82A A111C A120G C169G | 0.00872 |
| C82A A111C A120G C169U U176C | 0.0145 |
| C82A A111C A120G C169U U176G | 0.00559 |

| Variant | reverse-splicing fitness |
| --- | --- |
| C82A A111C A120G C169U U176A | 0.0144 |
| C82A A111C A120U A145U C150U C169A | 0.00321 |
| C82A A111C A120U A145U C150U C169U | 0.00409 |
| C82A A111C A120U A145U C150U C169G | 0.00466 |
| C82A A111C A120U C150A C169U U176G | 0.00284 |
| C82A A111C A120U C150A C169U U176C | 0.00458 |
| C82A A111C A120U C150A C169U U176A | 0.00806 |
| C82A A111C A120U A145C C150A C169A U176C | 0.00256 |
| C82A A111C A120U A145C C150A C169A U176A | 0.00291 |
| C82A A111C A120U A145C C150A C169A U176G | 0.00275 |
| C82A A111C A120G C150U U176A | 0.0116 |
| C82A A111C A120G C150U U176C | 0.02 |
| C82A A111C A120G C150U U176G | 0.00673 |
| C82A A111C A120G U176G | 0.00584 |
| C82A A111C A120G U176A | 0.0144 |
| C82A A111C A120G U176C | 0.0255 |
| C82A A111C A120G C150U C169A | 0.00973 |
| C82A A111C A120G C150U C169G | 0.00891 |
| C82A A111C A120G C150U C169U | 0.00806 |
| C82A A111C A120U A145U C150U U176C | 0.00936 |
| C82A A111C A120U A145U C150U U176A | 0.00713 |

| Variant | reverse-splicing fitness |
| --- | --- |
| C82A A111C A120U A145U C150U U176G | 0.00353 |
| C82A A111C A120U A145U C150G C169A U176A | 0.00379 |
| C82A A111C A120U A145U C150G C169A U176C | 0.00377 |
| C82A A111C A120U A145U C150G C169A U176G | 0.00338 |
| C82A A111C A120U A145C C150A | 0.00399 |
| C82A A111C A120U A145C C150U | 0.00922 |
| C82A A111C A120U A145C C150G | 0.00708 |
| C82A A111C A120U C150G C169A | 0.00857 |
| C82A A111C A120U A145C C169U U176A | 0.00272 |
| C82A A111C A120U A145C C169U U176C | 0.00326 |
| C82A A111C A120U A145C C169U U176G | 0.00232 |
| C82A A111C A120G A145U C150A C169U | 0.00736 |
| C82A A111C A120G C150A C169A U176C | 0.0168 |
| C82A A111C A120G C150A C169A U176G | 0.00729 |
| C82A A111C A120G C150A C169A U176A | 0.0182 |
| C82A A111C A120G A145U C150G U176G | 0.0034 |
| C82A A111C A120G A145U C150G U176A | 0.0064 |
| C82A A111C A120G A145U C150G U176C | 0.0147 |
| C82A A111C A120U A145U C150A C169G U176A | 0.003 |
| C82A A111C A120U A145U C150A C169G U176C | 0.00377 |
| C82A A111C A120U A145U C150A C169G U176G | 0.00247 |
